In patent publication US20150150157A1, “PREPHENATE DEHYDROGENASES AND AROGENATE DEHYDROGENASES THAT ARE INSENSITIVE TO EFFECTOR FEEDBACK INHIBITION AND METHODS OF USING THE SAME” (Wisconsin Alumni Research Foundation, priority 2013, published 2015):
Entries after “also recorded” stand apart in the source; their conditions may differ. Read-outs that look alike come from different tables or passages of the source.

B1: GmPDH1: soybean prephenate dehydrogenase enzyme, recombinant, insensitive to L-Tyr (protein)
chain: MSTSSSSQSLKIGIVGFGNFGQFLAKTMIKQGHTLTATSRSDYSELCLQMGIHFFRDVSAFLTADIDVIVLCTSILSLSEVVGSMPLTSLKRPTLFVDVLSVKEHPRELLLRELPEDSDILCTHPMFGPQTAKNGWTDHTFMYDKVRIRDEVICSNFIQIFATEGCKMVQMSCEEHDRAAAKSQFITHTIGRTLGEMDIQSTPIDTKGFETLVKLKETMMRNSFDLYSGLFVYNRFARQELENLEHALHKVKETLMIQRTNGEQGHKRTES
modifications: Glycine max
notes: soybean prephenate dehydrogenase enzyme, recombinant, insensitive to L-Tyr
B2: MtPDH1: Medicago truncatula prephenate dehydrogenase enzyme, recombinant, insensitive to L-Tyr (protein, listed as Medicago truncatula)
chain: MSSSSKSLKIGIVGFGTFGQFLANTMIKQGHTLTATSRTDYSQLCDQMGIHFFRDITAFLDADMDVILLCTSISSLSEVVGSMPLACLKRPTLFVDVLSVKEHPKNLLLKVLPEESDILCTHPMFGPVSGKNGWQNLTFMFDKVRIKDEVTCSKFLQIFASEGCKMVEMSCEEHDKAAAKSQFITHTIGRTLAEMDIKSTPIDTKGFQTLVELKKPVMGCSFDLYSGLFVYNRFARQELENLEHALHKVKEMLVQRIDEGQNPERTES
B3: M. tuberculosis PDH: microbial prephenate dehydrogenase from the literature (protein, UniProt O69721 1-323, looked up)
Prephenate dehydrogenase: MTRTVAAPPVCVLGLGLIGGSIMRAAAAAGREVFGYNRSVEGAHGARSDGFDAITDLNQTLTRAAATEALIVLAVPMPALPGMLAHIRKSAPGCPLTDVTSVKCAVLDEVTAAGLQARYVGGHPMTGTAHSGWTAGHGGLFNRAPWVVSVDDHVDPTVWSMVMTLALDCGAMVVPAKSDEHDAAAAAVSHLPHLLAEALAVTAAEVPLAFALAAGSFRDATRVAATAPDLVRAMCEANTGQLAPAADRIIDLLSRARDSLQSHGSIADLADAGHAARTRYDSFPRSDIVTVVIGADKWREQLAAAGRAGGVITSALPSLDSPQ

Legend:
[1] = Kinetic analysis of purified recombinant enzymes, PDH activity; format: biochemical
Protocol: (§1) Kinetic parameters of purified recombinant GmPDH1 and MtPDH1 for ADH activity (Table 3) were determined from assays conducted using varying L-arogenate concentrations (39 μM to 5 mM). Assays were incubated for 15 min with 0.5 mM NADP^+, by placing on ice and quantified by measuring production of NADPH by absorbance at 340 nm. Kinetic parameters of purified recombinant GmPDH1 and MtPDH1 for PDH activity (Table 3) were determined from assays conducted using varying prephenate concentrations (29 μM to 3.5 mM). Assays with 0.5 mM NADP^+ were monitored continuously at 340 nm using a microplate reader (Tecan GENios, Zurich, Switzerland) for 7 min. Kinetic parameters were determined using hyperbolic regression analysis in Hyper (http://homepage.ntlworld.com/john.eastetby/software.html). Enzyme assays were carried out at a protein concentration and reaction time that were in the linear range and proportional to reaction velocity. The final enzyme concentrations of the purified recombinant GmPDH1 and MtPDH1 were 0.9 μg/ml and 0.7 μg/ml for PDH activity and 3.0 μg/ml and 1.4 μg/ml for ADH activity, respectively.

[2] = Kinetic analysis of purified recombinant enzymes, ADH activity; format: biochemical; conditions: substrate L-arogenate (ADH activity), 37° C., 0.5 mM NADP+, mean ± s.e.m.
Protocol: as §1

[3] = Inhibition analysis: L-Tyr sensitivity of PDH activity of purified recombinant GmPDH1 and MtPDH1; format: biochemical; conditions: for effect of L-Tyr on PDH activity at low (non-saturating) prephenate concentrations: 1 mM L-Tyr, prephenate 15 mM to 59 μM; for effect of L-Tyr on PDH activity at low (non-saturating) prephenate concentrations / PDH activity: 1 mM NADP+; for PDH activity: purified recombinant enzyme, 1 mM prephenate; for inhibition of PDH activity by L-Tyr: up to 10 mM of L-Tyr
Protocol: (§2) ADH and PDH reactions using GmPDH1, Glyma11g35760, MtPDH1 and AtADH2 (FIG. 5A) contained 200 mM HEPES (pH 7.3), 50 mM KCl, 10% ethylene glycol, 1 mN4 NADP^+ and 1 mM substrate (L-arogenate or prephenate, respectively). Reactions were started by addition of enzyme and incubated at 37° C. for 15 min in the presence of increasing concentrations of effectors: L-Tyr FIG. 5A), L-Phe, L-Trp and HPP. Tyr was dissolved in basic conditions (0.025 N NaOH) to dissolve at high concentrations (up to 10 mM), though 200 mM HEPES maintained the final reaction pH at 7.6. Tyr sensitivity of purified recombinant GmPDH1 and MtPDH1 was also tested at prephenate concentrations ranging from […] to 59 μM, below the K values for GmPDH1 and MtPDH1, while keeping the L-Tyr concentration constant at 1 mM (FIG. 13). Enzyme activity was measured for the production of reduced cofactor (NADPH) at 340 nm using a spectrophotometer, except for crude soybean extracts, which were analyzed by HPLC after 45 min incubation and reduction to HPLA as described above.

[4] = Inhibition analysis: effect of L-Phe on PDH activity of purified recombinant enzymes; format: biochemical; conditions: purified recombinant enzyme
Protocol: as §2

[5] = Inhibition analysis: effect of L-Trp on PDH activity of purified recombinant enzymes; format: biochemical; conditions: purified recombinant enzyme
Protocol: as §2

[6] = Inhibition analysis: effect of HPP on PDH activity of purified recombinant enzymes; format: biochemical; conditions: purified recombinant enzyme
Protocol: as §2

[7] = Qualitative HPLC detection of PDH activity in E. coli cell lysates expressing candidate enzymes; format: biochemical; conditions: 2 mM prephenate, saturating conditions
Protocol: ADH and PDH reactions contained 25 mM HEPES (pH 7.5), 50 mM KCl, 10% ethylene glycol, 1 mM NADP (or NAD^+), 2 mM substrate (L-arogenate or prephenate, respectively) unless otherwise noted. Arogenate was prepared by enzymatic conversion from prephenate (Sigma-Aldrich), as previously reported. Reactions were started by addition of enzyme from various sources and incubated at 37′ C. for a given amount of time, as noted below,
HPLC-based methods were used to directly detect the final products of ADH and PDH assays, Tyr and HPP, respectively from crude E. coli extracts (FIG. 3B and FIG. 3C) and crude plant extracts (FIG. 2A and FIG. 6). For HPLC detection of PDH activity, reactions were incubated for 45 min and terminated by addition of NaBH4, which converts the reaction product HPP (which produced multiple peaks; FIG. 6) into hydroxyphenyllactic acid (HPLA), followed by neutralization with 100 μl of 6 N HCl. The conversion and recovery rate was 80±1.5% s.d. which was taken into account for the calculation of specific activity from crude plant extracts (FIG. 2C). HPLA was detected as a single peak (FIG. 2A) after being separated by HPLC (Agilent 1260, Santa Clara, Calif.) equipped with a ZORBA X SB-C18 column (Agitent) using a 6-min isocratic elution at 25% methanol in 0.1% phosphoric acid, followed by a 20-min linear gradient of 25-60% methanol at a flow rate of 1.0 ml/min. HPLA was detected using UV absorbance at 270 nm and quantified by a calibration curve generated from the authentic HPLA standard (Sigma-Aldrich). For HPLC-based detection of ADH activity (FIG. 3B), reactions were incubated for 45 min and terminated by addition of methanol to a final concentration of 66% (v/v). The product, Tyr, was derivatized with OPA and separated on a ZORBAX eclipse-XDB C18 column (Agilent) using a 30-min linear gradient of 20-45% methanol in 0.1% animonium acetate at a flow rate of 0.8 ml/min. Tyr was detected by UV absorption at 336 nm and quantified on the basis of a calibration curve generated by the authentic Tyr standard (Acros, Geel, Belgium).
The crude enzyme extracts were first subjected to PDH and ADH assays using saturating conditions to screen for any detectable PDH and/or ADH activity (FIG. 3B and FIG. 3C). ADH activity was detected from all five candidates. In contrast, PDH activity was detected only in Glyma11a35760 and Glyma18g02650 as well as their closest homolog from Medicago (Mt3g071980) but not in Glyma5g07870, Glyma17g13150 and Glyma14g05990 (FIG. 3C).

[8] = Substrate and electron acceptor preference of purified recombinant enzymes, PDH activity; format: biochemical; conditions: with NADP+ and to a lesser extent NAD+
Protocol: (§3) To test the electron acceptor and substrate preference of purified recombinant enzymes (FIG. 12), we incubated reactions for 15 min with 1.5 mM substrate (L-arogenate or prephenate) and 1 mM cofactor (NAD^+ or NADP^+). Assays were conducted with decreasing enzyme concentrations and stopped by placing on ice, and the production of reduced cofactor, NAD(P)H, was Measured at 340 nm using a spectrophotometer (NanoDrop 2000, Thermo).

[9] = Substrate and electron acceptor preference of purified recombinant enzymes, ADH activity; format: biochemical; conditions: with NADP+ or NAD+, compared with PDH activity
Protocol: as §3

[10] = literature values; read-out: Km for prephenate of other plant and microbial PDHs; cited from earlier work
[11] = cofactor NADP+, read-out: apparent Km for prephenate
[12] = substrate prephenate (PDH activity), 37° C., 0.5 mM NADP+, mean ± s.e.m.
[13] = substrate prephenate (PDH activity), 37° C., 0.5 mM NADP+, mean ± s.e.m., read-out: Km

Molecule	Km [1, 11]	Vmax [1, 12]	kcat [1, 12]	Km [1, 13]	Km [2]	Vmax [2]	kcat [2]	effect of L-Tyr on PDH activity at low (non-saturating) prephenate concentrations [3]	PDH activity ([3]; L-Tyr 0 mM)	PDH activity ([3]; L-Tyr 0.01 mM)	PDH activity ([3]; L-Tyr 0.1 mM)	PDH activity ([3]; L-Tyr 1.0 mM)	PDH activity ([3]; L-Tyr 10 mM)	inhibition of PDH activity by L-Tyr [3]	effect of L-Phe on PDH activity [4]	effect of L-Trp on PDH activity [5]	effect of HPP on PDH activity [6]	PDH activity (qualitative detection) [7]	PDH activity of purified recombinant enzyme [8]	ADH activity of purified recombinant enzyme [9]	further results
B1	127 µM	800 ± 21 nKat mg^−1	26.3 ± 0.7 s⁻¹	127 ± 20 µM	17000 µM	307 ± 56 nKat mg^−1	10.1 ± 1.8 s⁻¹	did not affect; also recorded: no effect	1059 ± 69 nKat/mg	1064 ± 52 nKat/mg	1103 ± 55 nKat/mg	1065 ± 44 nKat/mg	1152 ± 101 nKat/mg	not inhibited	did not reduce; also recorded: None of the tested molecules significantly reduced PDH activity	did not reduce; also recorded: None of the tested molecules significantly reduced PDH activity	did not reduce; also recorded: None of the tested molecules significantly reduced PDH activity	detected	strong PDH activity	much weaker ADH activity	kcat ([1]; substrate prephenate (PDH activity), 37° C., 0.5 mM NADP+, mean ± s.e.m., listed as Glyma18g02650): 26 s⁻¹
B2	223 µM	655 ± 73 nKat mg^−1	21.8 ± 2.4 s⁻¹	223 ± 20 µM	42500 ± 21800 µM	229 ± 96 nKat mg^−1	5.5 ± 3.2 s⁻¹	did not affect; also recorded: no effect	579 ± 28 nKat/mg	604 ± 22 nKat/mg	610 ± 7 nKat/mg	641 ± 19 nKat/mg	652 ± 56 nKat/mg	not inhibited	did not reduce; also recorded: None of the tested molecules significantly reduced PDH activity	did not reduce; also recorded: None of the tested molecules significantly reduced PDH activity	did not reduce; also recorded: None of the tested molecules significantly reduced PDH activity	detected	strong PDH activity	much weaker ADH activity	kcat ([1]; substrate prephenate (PDH activity), 37° C., 0.5 mM NADP+, mean ± s.e.m., listed as Mt3g071980): 22 s⁻¹; Km ([2]; listed as Mt3g071980): 43000 µM
B3	–	–	–	–	–	–	–	–	–	–	–	–	–	–	–	–	–	–	–	–	Km [10]: 410 µM
